From paper PMC5658023 (Current biology : CB, 2017)
Where two headings read alike, the source gives them in different places.

T1: GST-Chs4-SLR (220-610) (S. cerevisiae, UniProt P34226 220-610)
T1 sequence (looked up): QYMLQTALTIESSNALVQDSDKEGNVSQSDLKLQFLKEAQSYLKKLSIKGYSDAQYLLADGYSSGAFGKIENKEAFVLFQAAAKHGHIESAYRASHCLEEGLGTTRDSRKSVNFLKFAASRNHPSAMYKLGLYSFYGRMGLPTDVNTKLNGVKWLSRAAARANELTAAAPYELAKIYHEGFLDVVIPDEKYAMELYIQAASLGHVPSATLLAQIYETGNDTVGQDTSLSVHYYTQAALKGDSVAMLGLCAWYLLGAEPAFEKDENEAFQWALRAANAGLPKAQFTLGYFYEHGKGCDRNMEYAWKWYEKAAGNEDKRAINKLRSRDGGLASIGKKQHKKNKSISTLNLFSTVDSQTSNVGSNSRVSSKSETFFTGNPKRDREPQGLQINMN

T2: His6-Chs3-MID (477-1028) (S. cerevisiae, UniProt P29465 477-1028)
T2 sequence (looked up): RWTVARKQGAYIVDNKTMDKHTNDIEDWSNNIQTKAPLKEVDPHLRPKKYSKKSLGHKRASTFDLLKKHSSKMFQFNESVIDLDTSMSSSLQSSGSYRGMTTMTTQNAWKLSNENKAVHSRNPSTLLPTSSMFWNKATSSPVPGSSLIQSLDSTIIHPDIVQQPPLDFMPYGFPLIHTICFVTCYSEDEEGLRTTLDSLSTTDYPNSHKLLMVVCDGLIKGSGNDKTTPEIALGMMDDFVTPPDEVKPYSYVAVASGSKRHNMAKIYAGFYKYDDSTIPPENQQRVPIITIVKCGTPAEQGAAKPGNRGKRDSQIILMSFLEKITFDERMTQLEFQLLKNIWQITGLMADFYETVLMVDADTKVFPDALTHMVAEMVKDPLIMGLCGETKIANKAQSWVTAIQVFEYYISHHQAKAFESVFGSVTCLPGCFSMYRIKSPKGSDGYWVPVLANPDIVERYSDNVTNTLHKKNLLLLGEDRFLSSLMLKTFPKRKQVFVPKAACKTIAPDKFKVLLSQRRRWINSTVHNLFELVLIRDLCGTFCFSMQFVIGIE

B1: MBP-Hof1-F-BAR (1-275) (domain or fragment, S. cerevisiae, UniProt Q05080 1-275, looked up)
chain: MSYSYEACFWDPNDNGVNILLGHISQGIRSCDSMILFFKQRSELEKDYARRLGAITGKLDKDIGTNMDYGKLNETFNVVLSVEKARAQSHSKQSEILFRQIYTDTKAFAANLQARYTTLSGKIERLRMDKFNKKKGCEVLQKKLQDAQIRFRDLQLNENNMIGAKRVEHNKRELLKWESNSQEYKVQLDVLKQEYKASQKFWIHEWAQLSCELQEMENARISFLQSKLQQFATSSMETYILEQTKMDMLTNHLNSFTAADEISTFSKENGTGRLK
B2: His6-Hof1-N-term (domain or fragment, S. cerevisiae, UniProt Q05080 1-340, looked up)
chain: MSYSYEACFWDPNDNGVNILLGHISQGIRSCDSMILFFKQRSELEKDYARRLGAITGKLDKDIGTNMDYGKLNETFNVVLSVEKARAQSHSKQSEILFRQIYTDTKAFAANLQARYTTLSGKIERLRMDKFNKKKGCEVLQKKLQDAQIRFRDLQLNENNMIGAKRVEHNKRELLKWESNSQEYKVQLDVLKQEYKASQKFWIHEWAQLSCELQEMENARISFLQSKLQQFATSSMETYILEQTKMDMLTNHLNSFTAADEISTFSKENGTGRLKHKTSKGDMNSSANWAQMSSISTTSKKTESYMDNIRKLSSQLKETENKRKLASIDKYEKPLPSPEV
B3: MBP-Hof1-N-term (1-340) (domain or fragment, S. cerevisiae, UniProt Q05080 1-340, looked up)
chain: B2 chain
B4: MBP-Chs4-SLR (220-610) (domain or fragment, S. cerevisiae, UniProt P34226 220-610, looked up)
chain: T1 sequence (looked up)

Assays:
Assay in all cases: pull-down
GST-Chs4-SLR (220-610) [1] = molecular target: T1, GST-Chs4-SLR (220-610)
GST-Chs4-SLR (220-610) [2] = molecular target: T1, GST-Chs4-SLR (220-610); remark: listed apart in the source
MBP-Chs4-SLR (220-610) = molecular target: B4
His6-Chs3-MID (477-1028) = molecular target: T2, His6-Chs3-MID (477-1028)

Binder: B1
binding result (GST-Chs4-SLR (220-610) [1]): binds

Binder: B2
binding result (GST-Chs4-SLR (220-610) [2]): binds
binding result (MBP-Chs4-SLR (220-610)): binds

Binder: B3
binding result (GST-Chs4-SLR (220-610) [1]): binds

Binder: B4
binding result (His6-Chs3-MID (477-1028)): binds
